The values that follow come from patent publication US20100325744A1 (Genmab, published 2010).

Data set [1] has as its target T1, human C1q (Quidel) (human, UniProt P02745 23-245; P02746 28-253; P02747 29-245).
T1 construct: Bought (Quidel, lot 900848); also called first component of the classical complement cascade
Description: ELISA, antibody coated, C1q detected with rabbit anti-human C1q.
Description: In short, microtiter ELISA plates (Greiner, Germany) were coated overnight at RT with the test antibodies serially diluted from 10 μg/ml to 0.06 μg/ml in PBS. Plates were emptied and wells were blocked with 200 μl ELISA-diluent per well (0.1 M NaPO₄, 0.1 M NaCl, 0.1% gelatin and 0.05% Tween-20), at RT for 30 minutes. […] After washing the plates (3×) with PBST, wells were incubated with HRP-conjugated swine anti-rabbit IgG-Fc (DAKO, P0300, lot #069) diluted in ELISA diluent (1:2500, 100 μl/well, RT, 1 hour). Thereafter, plates were washed thrice and assays were developed with freshly prepared 1 mg/ml ABTS solution (ABTS: 2,2′-azino-bis[3-ethylbenzthiazoline-6-sulfonic acid]); 2 tablets of 5 mg in 10 ml ABTS buffer, Boehringer Mannheim, Ingelheim, Germany) at RT in the dark for 30 minutes.

Data set [2] concerns the molecule itself. The data set can be described thus: self-association; gel filtration on Superdex 200 in PBS, fractions read by Bet v 1 binding test.
Description: Samples (100 μl) were applied to a Superdex 200 HR 10/30 column (Amersham Biosciences, Uppsala, Sweden), which was connected to a HPLC system (ÄKTA explorer) from Amersham Biosciences, Uppsala, Sweden. The column was first equilibrated in PBS. Fractions of 250 μl were collected, in which Bet v 1 specific IgG was measured using the antigen binding assay.
To test the antigen binding of the Bet v 1 specific antibodies, a sample of diluted antibody was incubated overnight at room temperature with 0.75 mg Protein-G sepharose (Amersham Biosciences, Uppsala, Sweden) in 750 μl PBS/AT (PBS supplemented with 0.3% BSA, 0.1% Tween-20, 0.05% NaN3) together with 50 μl diluted ¹²⁵I-labelled Bet v 1 or ¹²⁵I-labelled Fel d 1. […] After washing the Sepharose suspension with PBS-T (PBS supplemented with 0.1% Tween-20), the bound radioactivity was measured. The results were expressed as the amount of radioactivity relative to the amount added.

T1 sequence (P02745 23-245 limits assumed, chain 1 of 3): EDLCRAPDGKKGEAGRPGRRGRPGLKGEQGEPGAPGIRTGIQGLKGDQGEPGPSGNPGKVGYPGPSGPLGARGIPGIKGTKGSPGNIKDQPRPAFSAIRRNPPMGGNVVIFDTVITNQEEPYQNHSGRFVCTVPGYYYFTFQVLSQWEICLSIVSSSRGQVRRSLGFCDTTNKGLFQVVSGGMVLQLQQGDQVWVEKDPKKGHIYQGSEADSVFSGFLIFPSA
T1 sequence (P02746 28-253 limits assumed, chain 2 of 3): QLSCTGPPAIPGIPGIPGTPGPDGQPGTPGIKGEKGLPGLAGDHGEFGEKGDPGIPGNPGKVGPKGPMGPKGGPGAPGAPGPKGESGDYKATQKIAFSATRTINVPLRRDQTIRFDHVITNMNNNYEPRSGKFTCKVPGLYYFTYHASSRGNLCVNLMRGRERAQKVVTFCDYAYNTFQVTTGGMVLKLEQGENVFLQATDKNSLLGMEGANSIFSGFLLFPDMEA
T1 sequence (P02747 29-245 limits assumed, chain 3 of 3): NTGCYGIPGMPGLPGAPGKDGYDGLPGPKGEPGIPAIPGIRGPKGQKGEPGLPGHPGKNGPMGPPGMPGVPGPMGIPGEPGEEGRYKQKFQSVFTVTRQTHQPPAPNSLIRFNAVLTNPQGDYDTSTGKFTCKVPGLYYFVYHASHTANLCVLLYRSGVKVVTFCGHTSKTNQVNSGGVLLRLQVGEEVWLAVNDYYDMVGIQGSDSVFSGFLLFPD

B1: 7D8-IgG4 (antibody)
heavy: not shown
light: EIVLTQSPATLSLSPGERATLSCRASQSVSSYLAWYQQKPGQAPRLLIYDASNRATGIPARFSGSGSGTDFTLTISSLEPEDFAVYYCQQRSNWPITFGQGTRLEIK
notes: Produced from pTomG47D8 and pConK7D8; also called IgG4 anti-CD20; not shown: human kappa light chain constant region, allotype km3 (vector pConKappa0.4, Lonza)
As to B1, the binding result in data set [1] is recorded as “no binding”.

B2: 7D8-HG (antibody)
heavy: EVQLVESGGGLVQPDRSLRLSCAASGFTFHDYAMHWVRQAPGKGLEWVSTISWNSGTIGYADSVKGRFTISRDNAKNSLYLQMNSLRAEDTALYYCAKDIQYGNYYYGMDVWGQGTTVTVSSASTKGPSVFPLAPCSRSTSESTAALGCLVKDYFPEPVTVSWNSGALTSGVHTFPAVLQSSGLYSLSSVVTVPSSSLGTKTYTCNVDHKPSNTKVDKRVAPEFLGGPSVFLFPPKPKDTLMISRTPEVTCVVVDVSQEDPEVQFNWYVDGVEVHNAKTKPREEQFNSTYRVVSVLTVLHQDWLNGKEYKCKVSNKGLPSSIEKTISKAKGQPREPQVYTLPPSQEEMTKNQVSLTCLVKGFYPSDIAVEWESNGQPENNYKTTPPVLDSDGSFFLYSRLTVDKSRWQEGNVFSCSVMHEALHNHYTQKSLSLSLGK
light: EIVLTQSPATLSLSPGERATLSCRASQSVSSYLAWYQQKPGQAPRLLIYDASNRATGIPARFSGSGSGTDFTLTISSLEPEDFAVYYCQQRSNWPITFGQGTRLEIK
notes: Half-molecule of one heavy and one light chain; in PBS without other IgG it is reported to form a non-covalent dimer; also called hingeless IgG4 anti-CD20; IgG4 HG; not shown: human kappa light chain constant region, allotype km3 (vector pConKappa0.4, Lonza)
On to B2, for which the binding result in data set [1] is “no binding”.

B3: Betv1-HG (antibody, V domains shown)
VH: EVQLQQSGAELVKPGASVKLSCTASGFNIKDTYIHWVKQRPEQGLEWVGRIDPATGNTRYDPKFQGKATITADTSSNTAYLQLSSLTSEDTAVYYCASFRPGYALDYWGQGTSVTVSS
VL: DIVMTQSHKFMSTSVGDRVSFTCKASQDVFTAVAWYQQKPGQSPKLLIYWASTRRTGVPDRFTGSGSGTDYTLTISSVQAEDLALYYCQQHFSTPPTFGGGTKLEIK
notes: Half-molecule of one heavy and one light chain; also called hingeless IgG4 anti-Bet v 1; hingeless rIgG4 Betv1-HG; not shown: human kappa light chain constant region, allotype km3 (vector pConKappa0.4, Lonza)
As to B3, the binding result in data set [2] is given as “no binding”.
